Assay results: IntAct's records for PubMed 21596426

Assays:
[1] = biological target: h4_human H4C16 (UniProt P62805)
[2] = biological target: h32_human H3C13 (UniProt Q71DI3)

| effect of a mutation on the interaction [1] | effect of a mutation on the interaction [2] | Substance |
| --- | --- | --- |
| disrupting interaction | – | Nucleosome-remodeling factor subunit BPTF (Homo sapiens) (from UniProt Q12830-4) F2870A |
| – | disrupting interaction | Nucleosome-remodeling factor subunit BPTF (Homo sapiens) (from UniProt Q12830-4) W2748E |
